Measured values taken from patent US20250340631A1 (HARBOUR BIOMED SHANGHAI, published 2025).
Residue numbers refer to the chain shown, from its start. Names may count otherwise.

B1: PR006292 (bispecific antibody, human IgG1, lambda)
chain: EVQLVESGGGLVQPGGSLRLSCAASGFTFSSYWMHWVRQVPGKGLVWVSRISSDASRTIYADSVKGRFTISRDNAKNTLYLQMNSLRAEDTAVYYCARGEDHDILTGYPIRGQGTTVTVSSGGGGSGGGGSGGGGSEVQLVESGGGLVQPGGSLRLSCAASGFTFSSYWMHWVRQVPGKGLVWVSRISSDASRTIYADSVKGRFTISRDNAKNTLYLQMNSLRAEDTAVYYCARGEDHDILTGYPIRGQGTTVTVSSASEPKSSDKTHTCPPCPAPEAAGAPSVFLFPPKPKDTLMISRTPEVTCVVVDVSHEDPEVKFNWYVDGVEVHNAKTKPREEQYNSTYRVVSVLTVLHQDWLNGKEYKCKVSNKALPAPIEKTISKAKGQPREPQVCTLPPSREEMTKNQVSLSCAVKGFYPSDIAVEWESNGQPENNYKTTPPVLDSDGSFFLVSKLTVDKSRWQQGNVFSCSVMHEALHNHYTQKSLSLSPGK
heavy: EVQLVESGGGLVQPGGSLKLSCAASGFTFSTYAMNWVRQASGKGLEWVGRIRSKYNNYATYYADSVKDRFTISRDDSKNTAYLQMNSLKTEDTAVYYCTRHGNFGNSYVSWFAYWGQGTLVTVSSASTKGPSVFPLAPSSKSTSGGTAALGCLVKDYFPEPVTVSWNSGALTSGVHTFPAVLQSSGLYSLSSVVTVPSSSLGTQTYICNVNHKPSNTKVDKKVEPKSCDKTHTCPPCPAPEAAGAPSVFLFPPKPKDTLMISRTPEVTCVVVDVSHEDPEVKFNWYVDGVEVHNAKTKPREEQYNSTYRVVSVLTVLHQDWLNGKEYKCKVSNKALPAPIEKTISKAKGQPREPQVYTLPPCREEMTKNQVSLWCLVKGFYPSDIAVEWESNGQPENNYKTTPPVLDSDGSFFLYSKLTVDKSRWQQGNVFSCSVMHEALHNHYTQKSLSLSPGK
light: QAVVTQEPSLTVSPGGTVTLTCRSSTGAVTTSNYANWVQQKPGQAPRGLIGGTNKRAPWTPARFSGSLLGDKAALTLLGAQPEDEAEYFCALWYSNLWVFGGGTKLTVLGQPKAAPSVTLFPPSSEELQANKATLVCLISDFYPGAVTVAWKADSSPVKAGVETTTPSKQSNNKYAASSYLSLTPEQWKSHRSYSCQVTHEGSTVEKTVAPTECS
notes: structure 1; CD3 Fab from PR003886, CLDN18.2 VH from PR007245; IgG1 knob/hole, AAA (L234A, L235A, G237A)
B2: PR006384 (bispecific antibody, human IgG1, lambda)
chain: B1 chain with D54T, A55G, D190T, A191G
heavy: B1 heavy
light: B1 light
notes: structure 1; CD3 Fab from PR003886, CLDN18.2 VH from PR007246; AAA

Experiments:
human CLDN6 = molecular target: T1, human CLDN6 (human, UniProt P56747 1-220); assay: FACS on HEK293 cells transiently expressing human CLDN6
T1 construct: whole, on cells; also called hCLDN6
T1 sequence (looked up): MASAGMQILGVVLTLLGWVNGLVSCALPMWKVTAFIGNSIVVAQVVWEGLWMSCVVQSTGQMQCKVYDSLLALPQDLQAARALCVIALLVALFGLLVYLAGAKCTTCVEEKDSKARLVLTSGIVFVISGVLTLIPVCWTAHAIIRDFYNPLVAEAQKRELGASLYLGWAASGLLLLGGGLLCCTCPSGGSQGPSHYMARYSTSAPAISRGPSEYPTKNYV
Method: (§1) Antibodies were assayed for binding affinity to human CLDN18.2 paralogous proteins by FACS (ACEA NovoCyte). CLDN1, CLDN2, CLDN3, CLDN4, CLDN6 and CLDN9 genes of the human CLDN18.2 paralogous family were transiently transfected into HEK293 cells. […] The cell density was adjusted to 10⁶ cells/mL, and 50 μL of the cell suspension was added to each well of a 96-well plate. An antibody was diluted to 60 nM with FACS buffer, and 50 μL of the antibody dilution was added to each well of the 96-well plate. After 2 h of incubation at 4° C., the plate was washed twice with FACS buffer. Then, an FACS buffer containing a secondary antibody was added. After 1 h of incubation at 4° C., the plate was washed twice with FACS buffer. The cells were resuspended in fixative solution, and run FACS.

human CLDN4 = molecular target: T2, human CLDN4 (human, UniProt O14493 1-209); assay: FACS on HEK293 cells transiently expressing human CLDN4
T2 construct: whole, on cells; also called hCLDN4
T2 sequence (looked up): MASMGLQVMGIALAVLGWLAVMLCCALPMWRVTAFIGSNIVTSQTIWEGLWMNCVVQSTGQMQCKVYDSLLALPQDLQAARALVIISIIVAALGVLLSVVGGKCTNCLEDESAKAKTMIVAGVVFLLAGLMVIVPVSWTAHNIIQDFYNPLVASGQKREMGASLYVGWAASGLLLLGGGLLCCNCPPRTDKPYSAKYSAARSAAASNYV
Method: as §1

[1] = molecular target: CLDN18.2 of SNU620 cells (methionine to leucine at amino acid 149) (human, UniProt P56856-2 1-261); assay: cell-based or functional assay
CLDN18.2 of SNU620 cells (methionine to leucine at amino acid 149), sequence (P56856 other isoform, or with tags, fused parts or gaps limits assumed): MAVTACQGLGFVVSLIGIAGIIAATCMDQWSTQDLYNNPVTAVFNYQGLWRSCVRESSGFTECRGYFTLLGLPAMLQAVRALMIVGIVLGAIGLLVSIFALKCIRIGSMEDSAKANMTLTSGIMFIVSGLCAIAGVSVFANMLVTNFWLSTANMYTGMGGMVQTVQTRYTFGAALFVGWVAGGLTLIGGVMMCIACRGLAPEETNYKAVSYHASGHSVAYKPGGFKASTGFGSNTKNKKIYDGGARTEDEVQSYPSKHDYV

human CLDN18.2 [2] = molecular target: human CLDN18.2 (human); assay: cell-based or functional assay
Human FcRn = Human FcRn (human, UniProt P55899 24-297; P61769 21-119); assay: BLI (Octet), antibody on FAB2G sensor, pH 6.0, 1:1 global fit; pH 6.0; 400-25 nM
Human FcRn, sequence (P55899 24-297 limits assumed, chain 1 of 2): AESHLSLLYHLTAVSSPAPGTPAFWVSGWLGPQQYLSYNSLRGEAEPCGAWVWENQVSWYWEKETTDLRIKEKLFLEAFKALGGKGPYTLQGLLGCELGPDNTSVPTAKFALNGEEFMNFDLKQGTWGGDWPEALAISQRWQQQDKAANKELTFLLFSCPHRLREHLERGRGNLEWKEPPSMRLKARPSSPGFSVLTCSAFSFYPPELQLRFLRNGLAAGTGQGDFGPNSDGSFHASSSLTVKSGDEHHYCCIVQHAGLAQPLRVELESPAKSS
Human FcRn, sequence (P61769 21-119 limits assumed, chain 2 of 2): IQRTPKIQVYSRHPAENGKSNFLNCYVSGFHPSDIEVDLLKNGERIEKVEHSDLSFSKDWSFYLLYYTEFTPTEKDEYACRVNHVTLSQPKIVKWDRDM
Method: The binding kinetics between proteins and antibodies was analyzed by the Biolayer Interferometry (BLI) technique using an Octet Red 96e (Fortebio) system. The rotation speed was set at 1000 rpm for the system. […] After equilibrated in the buffer for 120 s, the FAB2G sensor was allowed to bind to 2-fold serially diluted human Fc receptor protein. Finally, the FAB2G sensor was immersed in a 10 mM glycine-hydrochloric acid solution at pH 1.5 for regeneration to elute the proteins bound to the sensor. The affinity assays of antibodies for FcRn were performed under the conditions of both pH 6.0 buffer and pH 7.4 buffer. […] For the interactions of fast binding and fast dissociation, the “steady state” method was selected to fit the data to obtain KD(M) values.

[3] = molecular target: T3, Cynomolgus CD3E (Acro, CDE-C5226) (cynomolgus, UniProt Q95LI5 22-117, biotinylated (mixed with biotin 1:3)); assay: BLI (Octet), biotinylated CD3 on SA sensor, 1:1 global fit;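 note: antibodies applied as analyte in 2-fold serial dilutions, with a 180 s association phase followed by a 300 s dissociation phase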
T3 sequence (looked up): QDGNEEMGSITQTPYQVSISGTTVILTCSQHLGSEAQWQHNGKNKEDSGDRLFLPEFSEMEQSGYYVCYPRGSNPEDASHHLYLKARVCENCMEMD
Method: (§2) The binding kinetics between proteins and antibodies was analyzed by the Biolayer Interferometry (BLI) technique using an Octet Red 96e (Fortebio) system. Human CD3E (Acro, CDE-H5223), cynomolgus CD3E (Acro, CDE-C5226) and murine CD3E (Acro, CDE-M5256) were mixed with biotin (Thermo Scientific, A39257) in a molar ratio of 1:3. The mixture was incubated at 4° C. overnight, and then excess biotin was removed to obtain biotinylated CD3E. The rotation speed was set at 1000 rpm for the system. […] After being equilibrated in the buffer for 120 s, the SA sensor with captured CD3 was allowed to bind to 2-fold serially diluted antibodies. […] Finally, the SA sensor was immersed in a 10 mM glycine-hydrochloric acid solution at pH 1.5 for regeneration to elute the antibodies bound to the sensor. […] For the interactions of fast binding and fast dissociation, the “steady state” method was selected to fit the data to obtain KD(M) values.

[4] = molecular target: T4, Biotinylated human CD3E&D (human, UniProt P07766 23-126; P04234 22-105, biotin label); assay: as above
T4 construct: also called CDD-H82W6
T4 sequence (P07766 23-126, chain 1 of 2): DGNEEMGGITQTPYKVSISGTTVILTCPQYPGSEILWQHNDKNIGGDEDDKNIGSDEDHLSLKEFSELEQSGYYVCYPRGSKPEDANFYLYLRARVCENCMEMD
T4 sequence (P04234 22-105, chain 2 of 2): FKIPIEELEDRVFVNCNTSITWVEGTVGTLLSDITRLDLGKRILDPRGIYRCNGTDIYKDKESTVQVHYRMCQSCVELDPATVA
Method: as §2

[5] = molecular target: T5, Biotinylated cynomolgus CD3E&D (cynomolgus, UniProt Q95LI5 22-117; Q95LI8 22-105, biotin label); assay: as above
T5 construct: also called CDD-C82W6
T5 sequence (Q95LI8 22-105, one chain of several): as the sequence (P04234 22-105, chain 2 of 2) above, with I5V, N15K, I20V, S32T, D33N, I34N, T64A, S74N, V83L counted along it
Method: as §2

[6] = molecular target: T6, Human CD3E (Acro, CDE-H5223) (human, UniProt P07766 23-126, biotinylated (mixed with biotin 1:3)); assay: as above
T6 construct: also called Human CD3Ec
T6 sequence (P07766 23-126 limits assumed): as the sequence (P07766 23-126, chain 1 of 2) above
Method: as §2

human CLDN9 = molecular target: T7, human CLDN9 (human, UniProt O95484 1-217); assay: FACS on HEK293 cells transiently expressing human CLDN9
T7 construct: whole, on cells; also called hCLDN9
T7 sequence (looked up): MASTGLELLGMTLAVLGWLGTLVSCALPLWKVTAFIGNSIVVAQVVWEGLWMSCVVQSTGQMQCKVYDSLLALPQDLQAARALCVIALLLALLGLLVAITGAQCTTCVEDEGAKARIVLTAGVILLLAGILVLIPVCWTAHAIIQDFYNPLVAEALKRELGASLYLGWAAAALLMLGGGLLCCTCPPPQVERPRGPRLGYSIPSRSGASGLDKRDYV
Method: as §1

human CLDN1 = molecular target: T8, human CLDN1 (human, UniProt O95832 1-211); assay: FACS on HEK293 cells transiently expressing human CLDN1
T8 construct: whole, on cells; also called hCLDN1
T8 sequence (looked up): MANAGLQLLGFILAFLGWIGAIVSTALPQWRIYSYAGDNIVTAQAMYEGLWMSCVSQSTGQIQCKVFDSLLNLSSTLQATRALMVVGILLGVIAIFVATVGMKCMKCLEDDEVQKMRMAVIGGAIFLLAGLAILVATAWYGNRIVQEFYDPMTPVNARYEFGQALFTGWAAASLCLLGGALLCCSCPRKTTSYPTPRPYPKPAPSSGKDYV
Method: as §1

human CLDN3 = molecular target: T9, human CLDN3 (human, UniProt O15551 1-220); assay: FACS on HEK293 cells transiently expressing human CLDN3
T9 construct: whole, on cells; also called hCLDN3
T9 sequence (looked up): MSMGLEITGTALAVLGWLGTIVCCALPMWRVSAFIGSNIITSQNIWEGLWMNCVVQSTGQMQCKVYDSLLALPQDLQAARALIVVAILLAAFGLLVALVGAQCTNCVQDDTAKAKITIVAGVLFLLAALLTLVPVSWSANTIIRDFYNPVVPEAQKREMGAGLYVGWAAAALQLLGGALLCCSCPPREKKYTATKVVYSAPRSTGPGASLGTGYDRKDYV
Method: as §1

[7] = molecular target: T10, Biotinylated murine CD3E&D (murine, UniProt P22646 22-108; P04235 22-105, biotin label); assay: BLI (Octet), biotinylated CD3 on SA sensor
T10 construct: also called CDD-M82W5
T10 sequence (P22646 22-108, chain 1 of 2): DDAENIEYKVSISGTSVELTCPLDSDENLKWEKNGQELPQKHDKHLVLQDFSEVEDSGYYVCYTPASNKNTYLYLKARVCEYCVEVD
T10 sequence (P04235 22-105, chain 2 of 2): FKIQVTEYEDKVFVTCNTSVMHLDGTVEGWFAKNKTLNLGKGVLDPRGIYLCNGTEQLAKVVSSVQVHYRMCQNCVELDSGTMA
Method: as §2

human CLDN18.2 [8] = molecular target: T11, human CLDN18.2 (human); assay: competition FACS on HEK293/hCLDN18.2 cells; competitor 200 nM biotinylated PR004549
T11 construct: the HEK293 line was made with a GenScript plasmid; also called hCLDN18.2
Method: This example is to study the binding of anti-human CLDN18.2 bispecific antibodies to the epitope region of a human CLDN18.2 antigen. Competitive binding experiments were performed at the cellular level using human CLDN18.2-overexpressing HEK293/hCLDN18.2 cells. […] The mixture was well mixed and incubated at 4° C. for 30 min. 25 μL of the corresponding serially diluted non-biotinylated anti-human CLDN18.2 antibody was added. The mixture was well mixed and incubated at 4° C. for 1 h. The cells in each well were washed twice with 200 μL of pre-cooled FACS buffer (2% BSA in DPBS) and centrifuged at 500 g at 4° C. for 5 min, and then the supernatant was discarded. A fluorescent secondary antibody (Jackson ImmunoResearch, 016-540-084, 1:500) was added. The mixture was incubated at 4° C. in the absence of light for 1 h. The cells in each well were washed twice with 200 μL of pre-cooled FACS buffer (2% BSA in DPBS) and centrifuged at 500 g at 4° C. for 5 min, and then the supernatant was discarded. Finally, the cells in each well were resuspended in 200 μL of pre-cooled FACS buffer, and the fluorescence signal values were read using a ACEA_NovoCyte.

human CLDN18.2 [9] = molecular target: T11, human CLDN18.2; assay: FACS on NUGC4_D8 cells

Row | Binder | binding result (human CLDN6) | binding result (human CLDN4) | TDCC, Titer EC50 (pM), SNU620 [1] [pM] | TDCC, Titer EC50 (pM), NUGC4_D8 (human CLDN18.2 [2]) [pM] | Kd (Human FcRn) [nM] | koff (Human FcRn) [s⁻¹] | kon (Human FcRn) [M⁻¹ s⁻¹] | Kd [3] [nM] | koff [3] [s⁻¹] | kon [3] [M⁻¹ s⁻¹] | Kd [4] [nM] | koff [4] [s⁻¹] | kon [4] [M⁻¹ s⁻¹] | Kd [5] [nM] | koff [5] [s⁻¹] | kon [5] [M⁻¹ s⁻¹] | Kd [6] [nM] | koff [6] [s⁻¹] | kon [6] [M⁻¹ s⁻¹] | binding result (human CLDN9) | also measured
1 | B1 | no binding | no binding | 113 | 185 | 200 | 0.0609 | 305000 | 140 | 0.0105 | 75100 | 144 | 0.0122 | 84700 | 113 | 0.00965 | 85700 | 99 | 0.00978 | 98900 | no binding | binding result (human CLDN1): no binding; binding result (human CLDN3): no binding; binding result [7]: no binding (tested: 120-7.5 nM); IC50 (human CLDN18.2 [8]): 70.8 nM; Maximum inhibition rate (%) (human CLDN18.2 [8]): 48.1%; EC50 (human CLDN18.2 [9]): 70.1 nM
2 | B2 | no binding | no binding | 57.1 | 57.9 | 210 | 0.0608 | 289000 | 165 | 0.0122 | 74000 | 132 | 0.0119 | 90200 | 152 | 0.00942 | 62200 | 151 | 0.0129 | 85400 | no binding | TDCC, Titer EC50 (pM), IM95 (human CLDN18.2 [2]): 938 pM; binding result (human CLDN1): no binding; binding result (human CLDN3): no binding; binding result [7]: no binding (tested: 120-7.5 nM); IC50 (human CLDN18.2 [8]): 56.7 nM; Maximum inhibition rate (%) (human CLDN18.2 [8]): 48.5%; EC50 (human CLDN18.2 [9]): 51.4 nM
